Among the data in patent US20250250357A1 (NANJING ZAIMING PHARMACEUTICAL, published 2025) are OD450 values, retold here.

First the molecules themselves.
T1: human MSLN-R1-his protein (human, UniProt Q13421 296-390)
T1 construct: Made in HEK293E cells, purified on nickel column; also called hMSLN-R1-his; human MSLN-R1 protein; not shown: His tag
T1 chain: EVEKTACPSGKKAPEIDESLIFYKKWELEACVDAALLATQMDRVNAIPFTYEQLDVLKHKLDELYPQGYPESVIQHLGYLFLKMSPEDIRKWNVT

B1: S009-F7.61.21 chimeric antibody (antibody, human IgG1, kappa, V domains shown)
VH: DVQLQQSGPELVEPGASVRIPCKAAGHTFTDYNVDWVKQSHGQSLEWIGDVNPNTDGAIYNQKFEGKATLTVDTSSSTAYMELRSLTSEDTAVYFCARRRLGQGGFDSWGQGTTLTVSS
VL: QVVLTQSPAIMSASPGEKVTLTCGASSSLISKYLYWYQQKPGSSPKLWIYSTSNLASGVPARFSGSGSGTSYSLTISSMEAEDAASYFCHQWSSYPYTFGGGTKVEIKR
notes: Human-murine chimeric antibody, human IgG1/kappa constant regions
B2: S009-F7.69.8 chimeric antibody (antibody, human IgG1, kappa, V domains shown)
VH: EVHLQQSGPELVKPGASVRIPCKASGYTFTDYNMDWVKQSHGKSLEWIGDINPDNGGTIYTQKFKGKATLTVDKSSSTAYMELRSLTSEDTAVYYCARRLHYYGSSGLDYWGQGTTLTVSS
VL: DIQMTQSPASLSAYVGETVTITCRASGNIHNYLAWYQQKQGKSPQLLVYNAKTLADGVPSRFSGSGSGTQYSLKINSLQPEDFGSYYCQHFWSTVWTFGGGTKLEIKR
notes: as for B1
B3: S009-F7.65.13 chimeric antibody (antibody, human IgG1, kappa, V domains shown)
VH: EVQLQQSGPELVKPGTSVKILCKASGDTFTAYNMDWVKQRHGQSLEWIGDINPNTDSTIYNQKFEGKAILTVDKSSSTAYMELRSLTSEDTAVYYCARRKLGRGYFDYWGQGTTLTVSS
VL: QIVLTQSPAIMSASPGEKVTMTCSVNLSVRYIYWYQQKPGSSPRLLIHDTSNLASGVPVRFSGSGSGTSYSLTISRMEAEDAATYYCQQWSSFPYTFGGGTKLEIKR
notes: as for B1
B4: S009-F7.53.2 chimeric antibody (antibody, human IgG1, kappa, V domains shown)
VH: EVQLQQSGPELVKPGASVKIPCKTSGYTFTDYNMDWVKQSHGKSLEWIGDINPNTDGAIYNQKFQNKATLTVDKSSSTAYMELRSLTSEDTAVYYCTRRKLGRKFFDYWGQGTTLTVSS
VL: QIVLTQSPAIMSASPGEQVTMTCSASSSVGYMNWYQQKPGSSPRLLIYDTSNLASGVPVHFSGSGSGTSYSLTISRMEAAFAATYYCQQWYVYPYTFGGGTKLEIKR
notes: as for B1
B5: S009-F7.67.12 chimeric antibody (antibody, human IgG1, kappa, V domains shown)
VH: QVQLQQPGTELVKPGASVRLSCRASGYSFSSYWMHWVKQRPGQGLEWLGNINPTTGDINYNEKFRNRATLAVDKSSTTAYLQLTSLTSEDSAVYFCVRHDGFLWGQGTTLTVSS
VL: DIQMTQSPASLSASVGETVTITCRASENIYSYLAWYQQKQGKSPQLLVYYAKTLAEGVSSRFSGSGSGTQFSLKINSLQPEDFGTYYCQHQFGTPRTFGGGTKLEIRR
notes: as for B1
B6: S009-F7.66.12 chimeric antibody (antibody, human IgG1, kappa, V domains shown)
VH: QIPLQQSGPELVKPGASVRISCKASDYAFSSSWMNWVKQRPEKGLEWIGRIFVESGNTHYNDKFNGKATLTADKSSRTAYIQLSSLTSEDSAVYFCTRENIFYHGHSSWFAYWGQGTLVTVSA
VL: DIVLTQSPASLVVSLGQRATISCRAGESVDDFGISYVHWYQQKPGQPPKLLIYRAANLESGIPARFSGSGSRTDFTLTINPVETDDVAIYYCQQNNKDPFTFGSGTKLEIKR
notes: as for B1

T2 sequence (Q13421 other isoform, or with tags, fused parts or gaps): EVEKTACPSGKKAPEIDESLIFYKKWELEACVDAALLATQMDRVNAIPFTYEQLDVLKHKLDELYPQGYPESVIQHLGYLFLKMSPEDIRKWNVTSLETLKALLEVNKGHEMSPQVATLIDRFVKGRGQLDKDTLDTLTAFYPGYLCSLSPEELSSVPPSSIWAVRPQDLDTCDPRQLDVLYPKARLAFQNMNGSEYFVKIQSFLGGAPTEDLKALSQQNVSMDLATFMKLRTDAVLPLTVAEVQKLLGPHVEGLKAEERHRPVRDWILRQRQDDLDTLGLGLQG

The first experiment has as its target T1, human MSLN-R1-his protein. Briefly: ELISA, coated antigen, antibody 2 nM.
Description: (§1) The plate was sealed with a plastic film and incubated at 4° C. overnight. The next day, the plate was washed twice with PBST, and a blocking buffer [PBS+2% (w/w) BSA] was added for blocking at room temperature for 2 h. The blocking buffer was discarded, and a chimeric antibody or negative control antibody serially diluted from 100 nM was added at 50 μL/well. After incubation at 37° C. for 2 h, the plate was washed 3 times with PBST. […] After incubation at 37° C. for 2 h, the plate was washed 5 times with PBST. A TMB substrate was added at 50 μL/well for incubation at room temperature for 5-10 min, and then a stop solution (1.0 N HCl) was added at 50 μL/well.
B1 displayed an OD450 of 0.05.

On to B2, for which the OD450 stood at 0.04.

On to B3, for which the OD450 is 0.05.

B4 showed an OD450 of 0.05.

For B5, the OD450 is 0.05.

Turning to B6, the OD450 stood at 0.05.

The next experiment concerns the target T2, human MSLN-FL-his protein (human, UniProt Q13421 296-580).
T2 construct: Made in HEK293E cells, purified on nickel column; also called hMSLN-FL-his; human MSLN full-length protein; not shown: His tag
Briefly: ELISA, coated antigen, no antibody (blank). (An ELISA detects its analyte on a solid surface through an enzyme-linked reagent.)
As for B1, the OD450 was 0.06.

Regarding B2, the OD450 amounted to 0.06.

The molecule B3 yielded an OD450 of 0.06.

Molecule B4 gave an OD450 of 0.06.

Consider B5, for which the OD450 amounted to 0.05.

B6 yielded an OD450 of 0.07.

In the next experiment the target is T2, human MSLN-FL-his protein. The experiment in a line: ELISA, coated antigen, antibody 0.2 nM.
Description: as §1
For the molecule B1, the OD450 is 1.96.

B2 yielded an OD450 of 2.15.

Molecule B3 displayed an OD450 of 2.1.

Consider B4, for which the OD450 amounted to 1.53.

In turn, B5 returned an OD450 of 1.78.

B6 came in with an OD450 of 2.24.

The target of another experiment is T2, human MSLN-FL-his protein. The experiment in a line: ELISA, coated antigen, antibody 0.02 nM.
Description: as §1
On to B1, for which the OD450 came to 0.95.

In the case of B2, the OD450 was determined as 1.42.

The molecule B3 came in with an OD450 of 1.35.

Turning to B4, the OD450 turned out to be 0.47.

B5 showed an OD450 of 0.75.

Molecule B6 showed an OD450 of 1.77.

The next experiment addresses T2, human MSLN-FL-his protein. Briefly: ELISA, coated antigen, antibody 200 nM.
With B1, the OD450 came to 2.15.

In the case of B2, the OD450 worked out at 2.1.

With B3, the OD450 was 2.13.

In turn, B4 yielded an OD450 of 2.6.

Consider B5, for which the OD450 was 1.96.

With B6, the OD450 was 2.1.

In a further experiment the target is T2, human MSLN-FL-his protein. The experiment in a line: ELISA, coated antigen, antibody 0.002 nM.
Description: as §1
Regarding B1, the OD450 was found to be 0.23.

As to B2, the OD450 came to 0.43.

The molecule B3 came in with an OD450 of 0.52.

The molecule B4 gave an OD450 of 0.12.

Take B5: the OD450 stood at 0.23.

Turning to B6, the OD450 is 1.19.

For a further experiment, the target named is T1, human MSLN-R1-his protein. The experiment in a line: ELISA, coated antigen, no antibody (blank).
Description: as §1
B1: the OD450 worked out at 0.07.

Consider B2, for which the OD450 turned out to be 0.07.

Regarding B3, the OD450 worked out at 0.07.

B4 yielded an OD450 of 0.06.

Molecule B5 showed an OD450 of 0.07.

For the molecule B6, the OD450 is 0.06.

A further experiment has as its target T2, human MSLN-FL-his protein. Briefly: ELISA, coated antigen, antibody 2 nM.
Description: as §1
The molecule B1 came in with an OD450 of 2.14.

Regarding B2, the OD450 turned out to be 2.29.

Consider B3, for which the OD450 was 2.11.

B4 showed an OD450 of 2.1.

Regarding B5, the OD450 worked out at 2.07.

In turn, B6 registered an OD450 of 2.23.

In another experiment the target is T2, human MSLN-FL-his protein. Briefly: ELISA, coated antigen, antibody 0.0002 nM.
Description: as §1
The molecule B1 gave an OD450 of 0.09.

In the case of B2, the OD450 was 0.13.

B3 yielded an OD450 of 0.24.

Molecule B4 returned an OD450 of 0.06.

Molecule B5 had an OD450 of 0.13.

Molecule B6 came in with an OD450 of 0.77.

Another experiment concerns the target T1, human MSLN-R1-his protein. Briefly: ELISA, coated antigen, antibody 0.02 nM.
Description: as §1
The molecule B1 had an OD450 of 0.05.

For the molecule B2, the OD450 was 0.04.

The molecule B3 yielded an OD450 of 0.05.

B4 yielded an OD450 of 0.04.

As to B5, the OD450 is 0.05.

For B6, the OD450 came out at 0.04.

The next experiment addresses T1, human MSLN-R1-his protein. Briefly: ELISA, coated antigen, antibody 0.0002 nM.
Description: as §1
For the molecule B1, the OD450 amounted to 0.05.

On to B2, for which the OD450 was 0.05.

Regarding B3, the OD450 worked out at 0.05.

On to B4, for which the OD450 was 0.05.

For the molecule B5, the OD450 is 0.04.

B6 had an OD450 of 0.06.

For a further experiment, the target named is T1, human MSLN-R1-his protein. The experiment in a line: ELISA, coated antigen, antibody 200 nM.
Description: as §1
In the case of B1, the OD450 was found to be 0.07.

B2 had an OD450 of 0.11.

For the molecule B3, the OD450 was found to be 0.08.

With B4, the OD450 was 0.07.

As for B5, the OD450 was 0.07.

B6: the OD450 turned out to be 0.13.

The target of another experiment is T2, human MSLN-FL-his protein. The experiment in a line: ELISA, coated antigen, antibody 20 nM.
Description: as §1
In the case of B1, the OD450 amounted to 2.14.

In the case of B2, the OD450 worked out at 2.26.

B3 had an OD450 of 2.12.

Take B4: the OD450 is 2.2.

B5: the OD450 stood at 2.23.

With B6, the OD450 was 2.2.

Another experiment deals with T1, human MSLN-R1-his protein. Briefly: ELISA, coated antigen, antibody 0.2 nM.
Description: as §1
For the molecule B1, the OD450 came out at 0.05.

For the molecule B2, the OD450 stood at 0.05.

Molecule B3 had an OD450 of 0.05.

B4 returned an OD450 of 0.04.

B5 displayed an OD450 of 0.05.

Regarding B6, the OD450 was determined as 0.04.

The next experiment deals with T1, human MSLN-R1-his protein. The experiment in a line: ELISA, coated antigen, antibody 20 nM.
Description: as §1
With B1, the OD450 stood at 0.05.

In the case of B2, the OD450 worked out at 0.06.

Consider B3, for which the OD450 was 0.05.

Molecule B4 displayed an OD450 of 0.05.

Regarding B5, the OD450 came to 0.05.

For B6, the OD450 is 0.06.

For another experiment, the target named is T1, human MSLN-R1-his protein. Briefly: ELISA, coated antigen, antibody 0.002 nM.
Description: as §1
Take B1: the OD450 was 0.05.

For the molecule B2, the OD450 worked out at 0.05.

Turning to B3, the OD450 was 0.05.

B4 registered an OD450 of 0.05.

In turn, B5 returned an OD450 of 0.05.

On to B6, for which the OD450 stood at 0.04.
